{
  "source": "patent US20120171118A1",
  "about": "“TREATMENT OF MENINGEAL AND NEURAL DISEASES” (THE GENERAL HOSPITAL CORPORATION, priority 2009, published 2012)",
  "molecules": {"B1": {"name": "sulfamidase: human recombinant enzyme labeled with 124I (protein, UniProt P51688 21-502, looked up)", "N-sulphoglucosamine …": "RPRNALLLLADDGGFESGAYNNSAIATPHLDALARRSLLFRNAFTSVSSCSPSRASLLTGLPQHQNGMYGLHQDVHHFNSFDKVRSLPLLLSQAGVRTGIIGKKHVGPETVYPFDFAYTEENGSVLQVGRNITRIKLLVRKFLQTQDDRPFFLYVAFHDPHRCGHSQPQYGTFCEKFGNGESGMGRIPDWTPQAYDPLDVLVPYFVPNTPAARADLAAQYTTVGRMDQGVGLVLQELRDAGVLNDTLVIFTSDNGIPFPSGRTNLYWPGTAEPLLVSSPEHPKRWGQVSEAYVSLLDLTPTILDWFSIPYPSYAIFGSKTIHLTGRSLLPALEAEPLWATVFGSQSHHEVTMSYPMRSVQHRHFRLVHNLNFKMPFPIDQDFYVSPTFQDLLNRTTAGQPTGWYKDLRHYYYRARWELYDRSRDPHETQNLATDPRFAQLLEMLRDQLAKWQWETHDPWVCAPDGVLEEKLSPQCQPLHNEL", "modifications": "124I label", "notes": "human recombinant enzyme labeled with 124I"}, "B2": {"name": "idursulfase: human recombinant enzyme labeled with 124I (protein, UniProt P22304 34-455; P22304 456-550, looked up)", "Iduronate 2-sulfatase 42 kDa …": "TDALNVLLIIVDDLRPSLGCYGDKLVRSPNIDQLASHSLLFQNAFAQQAVCAPSRVSFLTGRRPDTTRLYDFNSYWRVHAGNFSTIPQYFKENGYVTMSVGKVFHPGISSNHTDDSPYSWSFPPYHPSSEKYENTKTCRGPDGELHANLLCPVDVLDVPEGTLPDKQSTEQAIQLLEKMKTSASPFFLAVGYHKPHIPFRYPKEFQKLYPLENITLAPDPEVPDGLPPVAYNPWMDIRQREDVQALNISVPYGPIPVDFQRKIRQSYFASVSYLDTQVGRLLSALDDLQLANSTIIAFTSDHGWALGEHGEWAKYSNFDVATHVPLIFYVPGRTASLPEAGEKLFPYLDPFDSASQLMEPGRQSMDLVELVSLFPTLAGLAGLQVPPRCPVPSFHVELCREGKNLLKHFRFRDLEEDPYLPG", "Iduronate 2-sulfatase 14 kDa …": "NPRELIAYSQYPRPSDIPQWNSDKPSLKDIKIMGYSIRTIDYRYTVWVGFNPDEFLANFSDIHAGELYFVDSDPLQDHNMYNDSQGGDLFQLLMP", "modifications": "124I label", "notes": "as for B1"}, "B3": {"name": "arylsulfatase A: human recombinant enzyme labeled with 124I (protein, UniProt P15289 19-507, looked up)", "Arylsulfatase A": "RPPNIVLIFADDLGYGDLGCYGHPSSTTPNLDQLAAGGLRFTDFYVPVSLCTPSRAALLTGRLPVRMGMYPGVLVPSSRGGLPLEEVTVAEVLAARGYLTGMAGKWHLGVGPEGAFLPPHQGFHRFLGIPYSHDQGPCQNLTCFPPATPCDGGCDQGLVPIPLLANLSVEAQPPWLPGLEARYMAFAHDLMADAQRQDRPFFLYYASHHTHYPQFSGQSFAERSGRGPFGDSLMELDAAVGTLMTAIGDLGLLEETLVIFTADNGPETMRMSRGGCSGLLRCGKGTTYEGGVREPALAFWPGHIAPGVTHELASSLDLLPTLAALAGAPLPNVTLDGFDLSPLLLGTGKSPRQSLFFYPSYPDEVRGVFAVRTGKYKAHFFTQGSAHSDTTADPACHASSSLTAHEPPLLYDLSKDPGENYNLLGGVAGATPEVLQALKQLQLLKAQLDAAVTFGPSQVARGEDPALQICCHPGCTPRPACCHCPDPHA", "modifications": "124I label", "notes": "as for B1"}},
  "key": {"[1]": {"conditions": "systemically administered; cited from earlier work"}, "[2]": {"conditions": "neoplastic carcinoma patients; cited from earlier work"}, "[3]": {"type": "in vitro ADME", "conditions": "rat, plasma", "experimental": "The mechanism of the second stage hydrolysis in vivo, which results in the active CPT release, may include spontaneous or enzymatic hydrolysis as well as, e.g., aminolysis. In vitro, the half-life of (N-succinamido)-glycyl linkage in the CPT prodrug (VI) in rat plasma was over 20 hours."}, "[4]": {"type": "physicochemical", "text": "Based on the experimental data on CPT release from PHF-CPT, the action of the conjugate after intrathecal administration will be localized in the target compartment (leptomeningeal tissues contacting with CSF). The kinetics of CPT release includes two phases: (1) non-enzymatic release of a highly hydrophobic prodrug camptothecin succinimidoglycinate (CPT-SI), and (2) release of active CPT from CPT-SI (Scheme 6). […] Thus, it is expected that CPT-SI will be deposited in the leptomeningeal space and will redistribute only locally along cell membranes and other hydrophobic compartments. […] A similar distribution pattern in the meningeal compartment is expected, with CPT-SI penetration from CSF into the cancer cell formations through several cell layers."}, "[5]": {"conditions": "humans, cited from earlier work"}, "[6]": {"assay": "PET imaging of 124I-labeled human recombinant enzymes after IV and IT administration", "type": "in vivo, rats", "experimental": "Imaging was performed using MicroPET P4. Spatial resolution (full width at half maximum, FWHM) was studied using a line ^124I source (Ø=0.19 mm) in water. A 51×127 mm cylindrical phantom was used to evaluate the count-rate performance and coincidence detection. Studies in rats and cynomolgus monkeys were carried out using five human recombinant enzymes. The proteins were labeled with ^124I, at up to 5 mCi/mg.\nNext, three human recombinant enzymes, idursulfase, arylsulfatase A, and sulfamidase were labeled with ^124I and administered at 1 and 10 mg/kg via two routes, IV and IT. Dynamic imaging data and multiple static images were acquired over 8 days, and processed to determine the principal PK parameters. FITC labeled sulfamidase was also utilized to investigate brain cryosections by photoimaging."}},
  "data": [
    {"molecule": "CN(Cc1cnc2nc(N)nc(N)c2n1)c1ccc(C(=O)N[C@@H](CCC(=O)O)C(=O)O)cc1", "note": "[methotrexate]", "values": [
      {"measurement": "CSF level relative to the systemic level", "setting": "[1]", "result": 1.7, "unit": "%"}
    ]},
    {"molecule": "CC[C@@]1(O)C(=O)OCc2c1cc1n(c2=O)Cc2cc3c(CN(C)C)c(O)ccc3nc2-1", "note": "[topotecan]", "values": [
      {"measurement": "clinical outcome", "setting": "[2]", "result": "not promising"}
    ]},
    {"molecule": "camptothecin succinimidoglycinate [CPT-SI]", "values": [
      {"measurement": "half-life of (N-succinamido)-glycyl linkage", "setting": "[3]", "result": "over 20 hours"},
      {"measurement": "solubility in water", "setting": "[4]", "result": "practically insoluble in water"}
    ]},
    {"molecule": "indium complex of diethylenetriaminepentaacetic acid [In-DTPA]", "values": [
      {"measurement": "time to reach brain ventricles", "setting": "[5]; after intralumbar injection", "result": "ca. 5 hours"},
      {"measurement": "half-life in CSF", "setting": "[5]", "result": "13.5 ± 4.5", "unit": "h"}
    ]},
    {"molecule": "B1", "values": [
      {"measurement": "initial label content in the brain region", "setting": "[6]; after IT administration, 124I label, PET", "result": "35 % of the injected dose/g"},
      {"measurement": "initial label content in the brain region", "setting": "[6]; after IV administration, 124I label, PET", "result": "0.05 % of the injected dose/g"}
    ]},
    {"molecule": "B2", "values": [
      {"measurement": "half-life of clearance from both the brain and spinal cord", "setting": "[6]; rat, in vivo", "result": "ca. 7 h"},
      {"measurement": "initial label content in the brain region", "setting": "[6]; rat, in vivo", "result": "45 % of the injected dose/g"},
      {"measurement": "initial label content in the brain region", "setting": "[6]; rat, in vivo, iv", "result": "0.20 % of the injected dose/g"}
    ]},
    {"molecule": "B3", "values": [
      {"measurement": "initial label content in the brain region", "setting": "[6]; rat, in vivo", "result": "70 % of the injected dose/g"},
      {"measurement": "initial label content in the brain region", "setting": "[6]; rat, in vivo, iv", "result": "0.15 % of the injected dose/g"}
    ]}
  ]
}
